Reference: publication PMC11344481 (Journal of proteome research, 2024)
Each block holds one molecule with its values, some of them ahead of it.

Columns and labels:
[1] = target: malate dehydrogenase (human (endogenous in heart tissue)) (UniProt P40925); test: native MS
[2] = target: the molecule itself; test: native MS

stoichiometry N [1]: 2
Molecule: malate dehydrogenase (from UniProt P40925 1-334) (enzyme)

B1: S100-A1 (natural protein, human (endogenous in heart tissue), UniProt P23297 2-94, looked up)
chain: GSELETAMETLINVFHAHSGKEGDKYKLSKKELKELLQTELSGFLDAQKDVDAVDKVMKELDENGDGEVDFQEYVVLVAALTVACNNFFWENS
modifications: N-terminal methionine removed and N-terminus acetylated (primary proteoform)
stoichiometry N [2]: 2
